Test results published in article PMC10720262 (Cell Reports, 2023).

B1: CL-444906 (antibody, V domains shown)
VH: QVQLVESGGGVVQPGRSLRLSCTASGFTFSTYGMHWVRQAPGKGLEWVAIIWYDGSNKFYADSVKGRFTISRDNSKDTLYLQMNSLRAEDTAIYYCARAWDKVDDKYGMDVWGQGTTVTVSS
VL: not shown
B2: CL-449869 (antibody, V domains shown)
VH: QVQLVESGGGAVQPGRSLRLSCAASGFTFSYNGMHWVRQAPGKGLEWVAIIWYDGSNKFYADSVKGRFTISRDNSKDTLYLEMNSLRAEDTAIYYCARAWNYDDKKYSMDVWGQGTTVTVSS
VL: DIQMTQSPSTLSASVGDRVTITCRASQSISSWLAWYQQKPGKAPKLLIYKASSLESGVPSRFSGSGSGTEFTLTISSLQPDDFATYYCQQYNYFWTFGQGTKVEIR
B3: CL-449759 (antibody, V domains shown)
VH: QVHLVESGGGVVQPGESQRLSCAASGFTFSNYGMHWVRQAPGKGLEWVALIWYDGSNKFYADSVKGRFTISRDNSKNTLYLHMNSLRAEDTAMYYCAKVPNWNDDKYTMDVWGQGTTVTVTS
VL: not shown
B4: CL-445901 (antibody, V domains shown)
VH: QVQLVESGGGVVQPGRSLRLSCAASGFTFSNYGIHWVRQAPGKGLEWVALIWFNGNNKFYADSVEGRFTVSRDNSKNTLYLQLNSLRAEDTAVYYCARAYYFASGNYMDYWGQGTLVTVSS
VL: DIQMTQSPSSVSASMGDRVTITCRASQDISSSLAWYQQKPGKAPILLISFASSLHSGVPSRFSGSGSGTDFTLTISSLQPEDFATYSCQQANSFPWTFGQGTRVEVK
B5: CL-447737 (antibody, V domains shown)
VH: QVQLVESGGGVVQPGRSLRLSCAASGFTFSSYGMHWVRQAPGKGLEWVAIIWFDGSNIFYEDSVKGRFTISRDNSKNTLYLQMNSLRAEDTAVYYCAKVWNYDSDYYSMDVWGQGTTVTVSS
VL: not shown
B6: CL-445827 (antibody, V domains shown)
VH: QVQLVASGGGVVQPGRSLRLSCVASGFTFSFFGMHWVRQTPGRGLEWVAIIWYDGGHKFYADSVKGRFTISRDNSKDTLYLQMNSLRAEDTAVYYCARAEDNMARGNIDYSKYGMDVWGQGTTVTVSS
VL: DIQMTQSPSTLSVSIGDRVTITCRASQSISTWLAWYQQKPGKAPKLLIYKASNLESGVPSRFSGSGSGTDFTLTISGLQPDDFATYYCQQYFSYWTFGQGTKVEIK
B7: CL-449849 (antibody, V domains shown)
VH: QVQLVESGGGAVQAGTSLRLSCAASGFTFSYNGMHWVRQGPGKGLEWVAIIWYDGGNKFYADSVKGRFTISRDNSKNMLYLQMNRLRAEDTAVYYCARAWNFADNKYSMDVWGQGTTVTVSS
VL: DIQMTQSPSTLSASVGDRVTITCRASQSISSWLAWYQQKPGKAPQLLIYKASSLESGVPSRFSGSGSGTEFTLTISSLQPDDFATYYCQQYYIYWTFGQGTKVDIK
B8: CL-447563 (antibody, V domains shown)
VH: QVQLVASGGGVVQPGRSLRLSCAASGFTFSNYGMHWVRQAPGKGLEWVAIIWYDGSKKYYSDSVKGRFTISRDNSKNTLYLQMNSLRAEDTAVYYCARAYGSGSYSDDYYGMDVWGQGTTVTVSS
VL: DIQMTQSPSTLSASVGDRVTITCRASQSISTWLAWYQQKPGKAPKLLIYKASNLESGVPSRFSGSGSGTEFTLTISSLQPDDFATYYCQQYYSYWTFGQGTKVEIK
B9: CL-449007 (antibody, V domains shown)
VH: QVQVVESGGGVVQPGRSLRLSCAASGFTFSNYGMHWVRQAPGKGLEWVAIIWYDGSHKFYANSVKGRFTISRDNSKNTLFLQMNSLRAEDTAVYYCARVGNGNSDWTDAFDIWGQGTMVTVSS
VL: DIQMTQSPSTLSASVGDRVTITCRASQSINSWLAWYQQKPGKAPKLLIYKASSLESGVPSRFSGSGSGTEFTLTISSLQPDDFATYYCQQYNTYWTFGQGTKVEIK
B10: CL-447609 (antibody, V domains shown)
VH: QVQLVESGGGVVQPGRSLRLSCAASGFTFNNYGMHWVRQAPGKGLDWVAIIWFDGSNKYYADSVKGRFTISRDNSKNTLYLQMNSLRAEDTAVYYCARVGDHSKYRNRGDAFDIWGQGTMVTVSS
VL: DIQMTQSPSTLSASVGDRVTITCRASQSISSWLAWYQQKPGKAPKLLIYKASSLESGVPSRFSGSGSGTEFTLTISSLQPDDSATYFCQQYDSYWTFGQGTKVEIK
B11: CL-447376 (antibody, V domains shown)
VH: QVQLVESGGGVVQPGRSLRLSCAASGFNFNNYGMHWVRQAPVMGLEWVAIIWYDGSNKFYADSVKGRFTISRDNSQNTLFLQMNSLRAEDTGIYYCARSGGEMGNFDYWGQGTLVTVSS
VL: DIVMTQSPLSLPVTLGQPASISCRSSQSLVYSNGDTYLDWFQLRPGQSPRRLIYKVSHRDSGVPDRFSGSGSGTEFTLRISRVEAEDVGIYYCMQGTHYWTFGQGTEVEIK
B12: CL-444739 (antibody, V domains shown)
VH: QVHLVESGGGVVQPGRSLRLSCVASGFSFSSYGMHWVRQAPGKGLEWVAIIWYDGSNRYYADSVQGRFTISRDNSKNTLYLQMNSLRAEDTAVYYCAKVGLSYNGRTGAFDVWGQGTMVTVSS
VL: not shown
B13: CL-444882 (antibody, V domains shown)
VH: QVHLVESGGGVVQPGRSLRLSCATSGFSFSSYGMHWVRQAPGKGLEWVAIIWYDGSNKFYADSVKGRFTISRDNSENTLYLQMNSLRAEDTAVYYCAKVGLSYSGRTGAFDIWGQGTMVTVSS
VL: DIQMTQSPSTLSASVGDRVTITCRASQSISIWLAWYQQKPGKAPKLLIYKAASLESGVPSRISGSGSGTEFTLTISSLQPDDFATYYCQQYNSYWTFGQGTKVEIK
B14: CL-449724 (antibody, V domains shown)
VH: QVHLVASGGGVVQPGRSLRLSCEVTGFTFSSYGMHWVRQDPGRGLEWVAIIWYDGSNKFYADSVKGRFTISRDNSKNTLYLQMNSLRAEDTAVYYCARSYGILTGYQTKYGMDVWGQGTTVTVSS
VL: not shown
B15: CL-445457 (antibody, V domains shown)
VH: QVQLVESGGAVVQPGTSLRLSCAASGFTFSNYGIHWVRQAPGKGLQWVALIWYNGNNKFYADSVQGRFTISRDNSKNILYLQINSLSAEDTAVYYCARAFYSDSGNYMDYWGQGALVTVSS
VL: DIQMTQSPSSVSASVGDRVTITCRARQDISSRLAWYQQKPGKAPKILIYGASSLQSGVPSRFSASGSGTDFTLTISSLQPEDVASYFCQQANSFPWTFGQGTKVEIK
B16: CL-445635 (antibody, V domains shown)
VH: QVQLVESGGAVVQPGTSLRLSCAASGFTFSNYGMHWVRQAPGKGLQWVALIWYNGNNKFYAESVEGRFIISRDNSKNILFLQMNSLSAEDTAVYYCARAFYYDSGNYLDYWGPGSLVTVSS
VL: DIQMTQSPSSVSASVGDRVTITCRARQDISSRLAWYQQKPGKAPKILIYGASSLQSGVPSRFSASGSGTDFTLTISSLQPEDFATYYCQQANSFPWTFGQGTKVEIK
B17: CL-447703 (antibody, V domains shown)
VH: QVQLVESGGGVVQPGRSLRLSCEASGFTFSDHGMHWVRQGPGKGLEWVSIIWYDGSNKYYADSVKGRFTISRDNSKNTLYLEMNRLRAEDTALYYCARVWNHDDYKYSMDVWGQGTTVTVSS
VL: not shown
B18: CL-450034 (antibody, V domains shown)
VH: QVQLVESGGGAVQAGTSLRLSCAASGFTFSYNGMHWVRQGPGKGLEWVAIIWYDGGNKFYADSVKGRFTISRDNSKNMLYLQMNRLRAEDTAVYYCARAWNYADSKYSMDVWGQGTTVTVSS
VL: not shown

What follows are binders tested against recombinant full-length PfCSP (Plasmodium falciparum circumsporozoite protein, strain NF54) (Plasmodium falciparum NF54, UniProt P19597).
Sequence of recombinant full-length PfCSP (Plasmodium falciparum circumsporozoite protein, strain NF54) (P19597 20-375): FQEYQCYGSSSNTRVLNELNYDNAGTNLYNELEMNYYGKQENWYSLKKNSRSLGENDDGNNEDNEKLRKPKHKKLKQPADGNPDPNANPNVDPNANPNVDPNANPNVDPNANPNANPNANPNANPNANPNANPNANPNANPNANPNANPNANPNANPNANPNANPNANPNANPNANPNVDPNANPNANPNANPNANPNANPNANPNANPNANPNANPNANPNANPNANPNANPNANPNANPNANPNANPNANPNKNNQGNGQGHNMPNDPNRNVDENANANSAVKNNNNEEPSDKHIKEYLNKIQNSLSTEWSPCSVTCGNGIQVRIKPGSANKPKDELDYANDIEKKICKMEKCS
B1: binds. B2: binds. B3: binds. B4: binds. B5: binds. B6: binds. B7: binds. B8: binds. B9: binds. B10: binds. B11: binds. B12: binds. B13: binds. B14: binds. B15: binds. B16: binds. B17: binds. B18: binds.
